From the supplement of paper PMC11246515
± gives the standard deviation of the averaged measurements.

Test: total protein half-life in vivo (active degradation + dilution); higher = more stable protein
[1] = E. coli NCM3722 delta-clpP, growth: N-lim chemostat, doubling time 6 h
[2] = E. coli NCM3722 delta-hslV, growth: N-lim chemostat, doubling time 6 h
[3] = E. coli NCM3722 delta-smpB, growth: N-lim chemostat, doubling time 6 h
[4] = wild type E. coli NCM3722, growth: C-lim chemostat, doubling time 3 h
[5] = wild type E. coli NCM3722, growth: C-lim chemostat, doubling time 6 h
[6] = wild type E. coli NCM3722, growth: C-lim chemostat, doubling time 12 h
[7] = wild type E. coli NCM3722, growth: N-lim chemostat, doubling time 6 h
[8] = wild type E. coli NCM3722, growth: N-lim chemostat, doubling time 12 h
[9] = wild type E. coli NCM3722, growth: P-lim chemostat, doubling time 6 h
[10] = wild type E. coli NCM3722, growth: P-lim chemostat, doubling time 12 h
[11] = E. coli NCM3722 delta-clpP delta-lon delta-hslV, growth: N-lim chemostat, doubling time 6 h
[12] = E. coli NCM3722 delta-lon, growth: N-lim chemostat, doubling time 6 h

Sequence	total protein half-life in vivo [1] [h]	total protein half-life in vivo [2] [h]	total protein half-life in vivo [3] [h]	total protein half-life in vivo [4] [h]	total protein half-life in vivo [5] [h]	total protein half-life in vivo [6] [h]	total protein half-life in vivo [7] [h]	total protein half-life in vivo [8] [h]	total protein half-life in vivo [9] [h]	total protein half-life in vivo [10] [h]	total protein half-life in vivo [11] [h]	total protein half-life in vivo [12] [h]
MTEKKYIVALDQGTTSSRAVVMDHDANIISVSQREFEQIYPKPGWVEHDPMEIWATQSSTLVEVLAKADISSDQIAAIGITNQRETTIVWEKETGKPIYNAIVWQCRRTAEICEHLKRDGLEDYIRSNTGLVIDPYFSGTKVKWILDHVEGSRERARRGELLFGTVDTWLIWKMTQGRVHVTDYTNASRTMLFNIHTLDWDDKMLEVLDIPREMLPEVRRSSEVYGQTNIGGKGGTRIPISGIAGDQQAALFGQLCVKEGMAKNTYGTGCFMLMNTGEKAVKSENGLLTTIACGPTGEVNYALEGAVFMAGASIQWLRDEMKLINDAYDSEYFATKVQNTNGVYVVPAFTGLGAPYWDPYARGAIFGLTRGVNANHIIRATLESIAYQTRDVLEAMQADSGIRLHALRVDGGAVANNFLMQFQSDILGTRVERPEVREVTALGAAYLAGLAVGFWQNLDELQEKAVIEREFRPGIETTERNYRYAGWKKAVKRAMAWEEHDE [P0A6F3]	6.74 ± 0.14	6.32 ± 0.39	5.64 ± 0.067	3.28 ± 0.085	5.398 ± 0.033	9.61 ± 1.5	5.983 ± 0.059	12.7 ± 0.32	6.31 ± 0.66	13 ± 0.85	–	–
MSDTNYAVIYDLHSHTTASDGCLTPEALVHRAVEMRVGTLAITDHDTTAAIAPAREEISRSGLALNLIPGVEISTVWENHEIHIVGLNIDITHPLMCEFLAQQTERRNQRAQLIAERLEKAQIPGALEGAQRLAQGGAVTRGHFARFLVECGKASSMADVFKKYLARGKTGYVPPQWCTIEQAIDVIHHSGGKAVLAHPGRYNLSAKWLKRLVAHFAEHHGDAMEVAQCQQSPNERTQLAALARQHHLWASQGSDFHQPCPWIELGRKLWLPAGVEGVWQLWEQPQNTTEREL	2.69 ± 0.6	2	1.76 ± 0.21	1.42 ± 0.78	3.06	5.96	2.24 ± 0.19	2.55 ± 0.59	2.72	4.57 ± 0.45	4.2 ± 0.46	4.05 ± 1.8
MNRLPSSASALACSAHALNLIEKRTLDHEEMKALNREVIEYFKEHVNPGFLEYRKSVTAGGDYGAVEWQAGSLNTLVDTQGQEFIDCLGGFGIFNVGHRNPVVVSAVQNQLAKQPLHSQELLDPLRAMLAKTLAALTPGKLKYSFFCNSGTESVEAALKLAKAYQSPRGKFTFIATSGAFHGKSLGALSATAKSTFRKPFMPLLPGFRHVPFGNIEAMRTALNECKKTGDDVAAVILEPIQGEGGVILPPPGYLTAVRKLCDEFGALMILDEVQTGMGRTGKMFACEHENVQPDILCLAKALGGGVMPIGATIATEEVFSVLFDNPFLHTTTFGGNPLACAAALATINVLLEQNLPAQAEQKGDMLLDGFRQLAREYPDLVQEARGKGMLMAIEFVDNEIGYNFASEMFRQRVLVAGTLNNAKTIRIEPPLTLTIEQCELVIKAARKALAAMRVSVEEA	3.09 ± 0.83	0.385 ± 0.062	0.289 ± 0.0059	0.378 ± 0.04	0.631 ± 0.033	1.06 ± 0.45	0.848 ± 0.61	0.594 ± 0.085	0.667 ± 0.37	1.3 ± 0.8	4.74 ± 0.26	0.49 ± 0.12
MAEAQNDPLLPGYSFNAHLVAGLTPIEANGYLDFFIDRPLGMKGYILNLTIRGQGVVKNQGREFVCRPGDILLFPPGEIHHYGRHPEAREWYHQWVYFRPRAYWHEWLNWPSIFANTGFFRPDEAHQPHFSDLFGQIINAGQGEGRYSELLAINLLEQLLLRRMEAINESLHPPMDNRVREACQYISDHLADSNFDIASVAQHVCLSPSRLSHLFRQQLGISVLSWREDQRISQAKLLLSTTRMPIATVGRNVGFDDQLYFSRVFKKCTGASPSEFRAGCEEKVNDVAVKLS [P0A9E0]	1.95	1.21 ± 0.4	0.763 ± 0.18	0.747 ± 0.18	1.42 ± 0.059	1.81 ± 0.044	1.08 ± 0.057	1.34 ± 0.25	–	1.12	5.38 ± 0.2	1.26 ± 0.079
MSHNVTPNTSRVELRKTLTLVPVVMMGLAYMQPMTLFDTFGIVSGLTDGHVPTAYAFALIAILFTALSYGKLVRRYPSAGSAYTYAQKSISPTVGFMVGWSSLLDYLFAPMINILLAKIYFEALVPSIPSWMFVVALVAFMTAFNLRSLKSVANFNTVIVVLQVVLIAVILGMVVYGVFEGEGAGTLASTRPFWSGDAHVIPMITGATILCFSFTGFDGISNLSEETKDAERVIPRAIFLTALIGGMIFIFATYFLQLYFPDISRFKDPDASQPEIMLYVAGKAFQVGALIFSTITVLASGMAAHAGVARLMYVMGRDGVFPKSFFGYVHPKWRTPAMNIILVGAIALLAINFDLVMATALINFGALVAFTFVNLSVISQFWIREKRNKTLKDHFQYLFLPMCGALTVGALWVNLEESSMVLGLIWAAIGLIYLACVTKSFRNPVPQYEDVA [P0AA47]	–	–	–	0.699 ± 0.063	–	–	–	–	–	–	–	–
MKNVGDLMQRLQKMMPAHIKPAFKTGEELLAWQKEQGAIRSAALERENRAMKMQRTFNRSGIRPLHQNCSFENYRVECEGQMNALSKARQYVEEFDGNIASFIFSGKPGTGKNHLAAAICNELLLRGKSVLIITVADIMSAMKDTFRNSGTSEEQLLNDLSNVDLLVIDEIGVQTESKYEKVIINQIVDRRSSSKRPTGMLTNSNMEEMTKLLGERVMDRMRLGNSLWVIFNWDSYRSRVTGKEY [P0AEF0]	2.75 ± 0.059	2.11 ± 0.34	2.33 ± 0.07	2.05 ± 0.26	4.67 ± 0.49	5.08 ± 0.67	2.18 ± 0.26	3.42 ± 0.18	3.49 ± 0.45	7.41 ± 2.5	3.95 ± 0.25	2.64 ± 0.32
MRFVDEYRAPEQVMQLIEHLRERASHLSYTAERPLRIMEVCGGHTHAIFKFGLDQLLPENVEFIHGPGCPVCVLPMGRIDTCVEIASHPEVIFCTFGDAMRVPGKQGSLLQAKARGADVRIVYSPMDALKLAQENPTRKVVFFGLGFETTMPTTAITLQQAKARDVQNFYFFCQHITLIPTLRSLLEQPDNGIDAFLAPGHVSMVIGTDAYNFIASDFHRPLVVAGFEPLDLLQGVVMLVQQKIAAHSKVENQYRRVVPDAGNLLAQQAIADVFCVNGDSEWRGLGVIESSGVHLTPDYQRFDAEAHFRPAPQQVCDDPRARCGEVLTGKCKPHQCPLFGNTCNPQTAFGALMVSSEGACAAWYQYRQQESEA	3.17 ± 0.086	2.4	–	2.32 ± 0.034	3.94 ± 0.33	5.53 ± 0.43	2.2	2.79	3.08	5.78	5.73	2.92 ± 0.14
MRVLKFGGTSVANAERFLRVADILESNARQGQVATVLSAPAKITNHLVAMIEKTISGQDALPNISDAERIFAELLTGLAAAQPGFPLAQLKTFVDQEFAQIKHVLHGISLLGQCPDSINAALICRGEKMSIAIMAGVLEARGHNVTVIDPVEKLLAVGHYLESTVDIAESTRRIAASRIPADHMVLMAGFTAGNEKGELVVLGRNGSDYSAAVLAACLRADCCEIWTDVDGVYTCDPRQVPDARLLKSMSYQEAMELSYFGAKVLHPRTITPIAQFQIPCLIKNTGNPQAPGTLIGASRDEDELPVKGISNLNNMAMFSVSGPGMKGMVGMAARVFAAMSRARISVVLITQSSSEYSISFCVPQSDCVRAERAMQEEFYLELKEGLLEPLAVTERLAIISVVGDGMRTLRGISAKFFAALARANINIVAIAQGSSERSISVVVNNDDATTGVRVTHQMLFNTDQVIEVFVIGVGGVGGALLEQLKRQQSWLKNKHIDLRVCGVANSKALLTNVHGLNLENWQEELAQAKEPFNLGRLIRLVKEYHLLNPVIVDCTSSQAVADQYADFLREGFHVVTPNKKANTSSMDYYHQLRYAAEKSRRKFLYDTNVGAGLPVIENLQNLLNAGDELMKFSGILSGSLSYIFGKLDEGMSFSEATTLAREMGYTEPDPRDDLSGMDVARKLLILARETGRELELADIEIEPVLPAEFNAEGDVAAFMANLSQLDDLFAARVAKARDEGKVLRYVGNIDEDGVCRVKIAEVDGNDPLFKVKNGENALAFYSHYYQPLPLVLRGYGAGNDVTAAGVFADLLRTLSWKLGV	4.31 ± 0.13	4.513 ± 0.01	4.13 ± 0.11	3.08 ± 0.21	5.9 ± 0.22	13.5 ± 0.33	4.29 ± 0.33	7.56 ± 0.76	6.53 ± 0.39	12.2 ± 0.26	5.65 ± 0.16	4.89 ± 0.11
MAASTFFIPSVNVIGADSLTDAMNMMADYGFTRTLIVTDNMLTKLGMAGDVQKALEERNIFSVIYDGTQPNPTTENVAAGLKLLKENNCDSVISLGGGSPHDCAKGIALVAANGGDIRDYEGVDRSAKPQLPMIAINTTAGTASEMTRFCIITDEARHIKMAIVDKHVTPLLSVNDSSLMIGMPKSLTAATGMDALTHAIEAYVSIAATPITDACALKAVTMIAENLPLAVEDGSNAKAREAMAYAQFLAGMAFNNASLGYVHAMAHQLGGFYNLPHGVCNAVLLPHVQVFNSKVAAARLRDCAAAMGVNVTGKNDAEGAEACINAIRELAKKVDIPAGLRDLNVKEEDFAVLATNALKDACGFTNPIQATHEEIVAIYRAAM	–	–	–	–	–	–	–	–	4.98	9.25 ± 2.1	–	–
MAIKKRSATVVPGASGAAAAVKNPQASKTSFWGELPQHVMSGISRMVPTLIMGGVILAFSQLIAYSWLKIPAEIGIMDALNSGKFSGFDLSLLKFAWLSQSFGGVLFGFAIPMFAAFVANSIGGKLAFPAGFIGGLMSTQPTQLLNFDPSTMQWATSSPVPSTFIGALIISIVAGYLVKWMNQKIQLPDFLLAFKTTFLLPILSAIFVMLAMYYVITPFGGWINGGIRTVLTAAGEKGALMYAMGIAAATAIDLGGPINKAAGFVAFSFTTDHVLPVTARSIAIVIPPIGLGLATIIDRRLTGKRLFNAQLYPQGKTAMFLAFMGISEGAIPFALESPITAIPSYMVGAIVGSTAAVWLGAVQWFPESAIWAWPLVTNLGVYMAGIALGAVITALMVVFLRLMMFRKGKLLIDSL	–	–	–	2.72	4.59 ± 0.42	6.4	–	–	–	–	–	–
MENKYSRLQISIHWLVFLLVIAAYCAMEFRGFFPRSDRPLINMIHVSCGISILVLMVVRLLLRLKYPTPPIIPKPKPMMTGLAHLGHLVIYLLFIALPVIGLVMMYNRGNPWFAFGLTMPYASEANFERVDSLKSWHETLANLGYFVIGLHAAAALAHHYFWKDNTLLRMMPRKRS [P0ABE5]	5.78	6.32	5.9	2.81 ± 0.06	5.31	14.8	–	10.6	–	11.9	7.28	–
MLNERQLKIVDLLEQQPRTPGELAQQTGVSGRTILRDIDYLNFTLNGKARIFASGSAGYQLEIFERRSFFQLLQKHDNDDRLLALLLLNTFTPRAQLASALNLPETWVAERLPRLKQRYERTCCLASRPGLGHFIDETEEKRVILLANLLRKDPFLIPLAGITRDNLQHLSTACDNQHRWPLMQGDYLSSLILAIYALRNQLTDEWPQYPGDEIKQIVEHSGLFLGDNAVRTLTGLIEKQHQQAQVISADNVQGLLQRVPGIASLNIIDAQLVENITGHLLRCLAAPVWIAEHRQSSMNNLKAAWPAAFDMSLHFITLLREQLDIPLFDSDLIGLYFACALERHQNERQPIILLSDQNAIATINQLAIERDVLNCRVIIARSLSELVAIREEIEPLLIINNSHYLLDDAVNNYITVKNIITAAGIEQIKHFLATAFIRQQPERFFSAPGSFHYSNVRGESWQHITRQICAQLVAQHHITADEAQRIIAREGEGENLIVNRLAIPHCWSEQERRFRGFFITLAQPVEVNNEVINHVLIACAAADARHELKIFSYLASILCQHPAEIIAGLTGYEAFMELLHKG	–	–	–	–	–	–	–	–	–	–	6.57	–
MKIELTVNGLKIQAQYQNEEIENVHKPLLHMLAALQTVNPQRRTVVFLCAPPGTGKSTLTTFWEYLAQQDPELPAIQTLPMDGFHHYNSWLDAHQLRPFKGAPETFDVAKLTENLRQVVEGDCTWPQYDRQKHDPVEDALHVTAPLVIVEGNWLLLDDEKWLELASFCDFSIFIHAPAQILRERLISRKIAGGLTRQVAEAFYARTDGPNVERVLMNSRQANLIVEMTEEGRYHFTS	1.31	–	–	–	–	–	–	–	–	–	5.96	–
